Patent publication US20200024322A1 (Eli Lilly, published 2020)
Residue numbers refer to the chain shown, from its start. Numbered stars: 1 amine (or outer) side, 2 acyl side, 3 side chain; on linkers, the order of the positions; unused ones are H or OH. Square brackets hold non-standard residues; d marks the D form. Side chains are listed from the residue outwards. Ends that are not written are not given here. * marks the point of attachment. C18 diacid = O=C(O)CCCCCCCCCCCCCCCCC(=O)*; γGlu = O=C(O)[C@H](CCC(=O)[*:2])N[*:1]; AEEA = NCCOCCOCC(=O)O; Aib = CC(C)(N)C(=O)O

T1: human GIP receptor (human, UniProt P48546 22-466)
T1 construct: whole, on cells; also called hGIPR; hGIP-R
T1 sequence (looked up): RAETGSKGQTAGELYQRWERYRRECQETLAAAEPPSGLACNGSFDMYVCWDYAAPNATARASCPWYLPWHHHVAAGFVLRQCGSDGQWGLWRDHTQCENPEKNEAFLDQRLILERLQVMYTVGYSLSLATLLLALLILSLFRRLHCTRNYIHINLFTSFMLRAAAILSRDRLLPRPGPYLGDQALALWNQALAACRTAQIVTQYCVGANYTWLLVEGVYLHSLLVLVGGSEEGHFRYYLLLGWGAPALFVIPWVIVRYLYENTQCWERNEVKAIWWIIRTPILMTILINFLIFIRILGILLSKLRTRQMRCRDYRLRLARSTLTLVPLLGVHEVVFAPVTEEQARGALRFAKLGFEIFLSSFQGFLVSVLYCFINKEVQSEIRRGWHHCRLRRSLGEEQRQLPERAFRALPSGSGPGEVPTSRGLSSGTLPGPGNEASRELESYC

B1: Example 295 (peptide)
peptide: Y[Aib]EGTFTSDYSILLDKK([AEEA-AEEA-γGlu-C18 diacid])AQHAFIEYLIEGG-NH2
modifications: N-terminus assumed
SMILES: CC[C@H](C)[C@H](NC(=O)[C@H](CC(C)C)NC(=O)[C@H](Cc1ccc(O)cc1)NC(=O)[C@H](CCC(=O)O)NC(=O)[C@@H](NC(=O)[C@H](Cc1ccccc1)NC(=O)[C@H](C)NC(=O)[C@H](Cc1c[nH]cn1)NC(=O)[C@H](CCC(N)=O)NC(=O)[C@H](C)NC(=O)[C@H](CCCCNC(=O)COCCOCCNC(=O)COCCOCCNC(=O)CC[C@H](NC(=O)CCCCCCCCCCCCCCCCC(=O)O)C(=O)O)NC(=O)[C@H](CCCCN)NC(=O)[C@H](CC(=O)O)NC(=O)[C@H](CC(C)C)NC(=O)[C@H](CC(C)C)NC(=O)[C@@H](NC(=O)[C@H](CO)NC(=O)[C@H](Cc1ccc(O)cc1)NC(=O)[C@H](CC(=O)O)NC(=O)[C@H](CO)NC(=O)[C@@H](NC(=O)[C@H](Cc1ccccc1)NC(=O)[C@@H](NC(=O)CNC(=O)[C@H](CCC(=O)O)NC(=O)C(C)(C)NC(=O)[C@@H](N)Cc1ccc(O)cc1)[C@@H](C)O)[C@@H](C)O)[C@@H](C)CC)[C@@H](C)CC)C(=O)N[C@@H](CCC(=O)O)C(=O)NCC(=O)NCC(N)=O
B2: Example 289 (peptide)
peptide: YXEGTFTSDYSIXLDKKAQXEFIEYLIAGGPSSGAPPPS
modifications: Aib2; αMeL13; K17((2-[2-(2-Amino-ethoxy)-ethoxy]-acetyl)2-(γ-Glu)-CO-(CH2)18-CO2H); Aib20; C-terminal NH2
notes: also called GG-731
B3: Example 352 (peptide)
peptide: B2 peptide with Y1X, E21A, E24X
modifications: D-Tyr1; Aib2; αMeL13; K17((2-[2-(2-Amino-ethoxy)-ethoxy]-acetyl)2-(γ-Glu)-CO-(CH2)18-CO2H); Aib20; D-Glu24; C-terminal NH2
B4: Example 343 (peptide)
peptide: B2 peptide with K16E, E21A, E24X
modifications: Aib2; αMeL13; K17((2-[2-(2-Amino-ethoxy)-ethoxy]-acetyl)2-(γ-Glu)-CO-(CH2)18-CO2H); Aib20; D-Glu24; C-terminal NH2
B5: Example 291 (peptide)
peptide: B2 peptide with Y1X, K16X, E21A, E24X
modifications: D-Tyr1; Aib2; αMeL13; Orn16; K17((2-[2-(2-Amino-ethoxy)-ethoxy]-acetyl)2-(γ-Glu)-CO-(CH2)18-CO2H); Aib20; D-Glu24; C-terminal NH2
B6: Example 359 (peptide)
peptide: B2 peptide with Y1X, K16X, I23V
modifications: D-Tyr1; Aib2; αMeL13; Orn16; K17((2-[2-(2-Amino-ethoxy)-ethoxy]-acetyl)2-(γ-Glu)-CO-(CH2)18-CO2H); Aib20; C-terminal NH2
B7: Example 328 (peptide)
peptide: B2 peptide with Y1F, E21A, A28E, G29A
modifications: Aib2; αMeL13; K17((2-[2-(2-Amino-ethoxy)-ethoxy]-acetyl)2-(γ-Glu)-CO-(CH2)16-CO2H); Aib20; C-terminal NH2
B8: Example 338 (peptide)
peptide: B2 peptide with Y1F
modifications: Aib2; αMeL13; K17((2-[2-(2-Amino-ethoxy)-ethoxy]-acetyl)2-(γ-Glu)-CO-(CH2)18-CO2H); Aib20; C-terminal NH2
B9: Example 364 (peptide)
peptide: XXEGTFTSDYSIXLDXKAQXAFVXYLIAGGPSSGAPPPS
modifications: not fully specified; D-Tyr1; Aib2; αMeL13; Orn16; K17((2-[2-(2-Amino-ethoxy)-ethoxy]-acetyl)2-(γ-Glu)-CO-(CH2)16-CO2H); Aib20; D-Glu24; C-terminal NH2
B10: Example 362 (peptide)
peptide: B9 peptide
modifications: D-Tyr1; Aib2; αMeL13; Orn16; K17((2-[2-(2-Amino-ethoxy)-ethoxy]-acetyl)2-(γ-Glu)-CO-(CH2)18-CO2H); Aib20; D-Glu24; C-terminal NH2
B11: Example 331 (peptide)
peptide: B2 peptide with K16E
modifications: Aib2; αMeL13; K17((2-[2-(2-Amino-ethoxy)-ethoxy]-acetyl)2-(γ-Glu)-CO-(CH2)18-CO2H); Aib20; C-terminal NH2

Molecular target: T1, human GIP receptor
Test: [125I]-GIP competition SPA, hGIPR membranes
Experimental: The binding buffer contains 25 mM HEPES, pH 7.4, 2.5 mM CaCl₂, 1 mM MgCl₂, 0.1% (w/v) bacitracin, 0.003% (w/v) TWEEN®-20, and Roche Complete™ Protease Inhibitors without EDTA. […] Plates are sealed and mixed on a plate shaker (setting 6) for 1 minute and read with a PerkinElmer Trilux MicroBeta® scintillation counter after 2.5 to 12 hours of incubation/settling time at room temperature.
(§1) Data are analyzed using four-parameter (curve maximum, curve minimum, IC₅₀, Hill slope) nonlinear regression routines (Genedata Screener, version 12.0.4, Genedata AG, Basal, Switzerland). […] Values for Kᵢ are reported as the geometric mean, with error expressed as the standard error of the mean (SEM) and n is equal to the number of independent replicates (determined in assays performed on different days). Geometric Means are calculated as follows: […]

Question: Which Ki does the source give for B1 here?
Answer: 0.181 nM

Question: B2 was tested. Which Ki did it give?
Answer: 0.0457 nM

Question: With B3 as the binder, how does the Ki read?
Answer: 0.0726 nM

Question: Which Ki does the source give for B4 here?
Answer: 0.0374 nM

Question: For B5, which Ki is on record?
Answer: 0.129 nM

Question: For B6, which Ki is on record?
Answer: 0.0874 nM

Question: For B7, which Ki is on record?
Answer: 0.136 nM

Question: Which Ki does the source give for B8 here?
Answer: 0.0831 nM

Question: B9 was tested. Which Ki did it give?
Answer: 0.672 nM

Question: How did the Ki turn out when B10 was run?
Answer: 0.337 nM

Question: B11 was tested. Which Ki did it give?
Answer: 0.0851 nM

Molecular target: T2, human GLP-1 receptor (human, UniProt P43220 24-463)
T2 construct: whole, on cells; also called hGLP-1R; hGLP1R
Test: [125I]-GLP-1 competition SPA, hGLP-1R membranes
Experimental: The binding buffer contains 25 mM HEPES, pH 7.4, 2.5 mM CaCl₂, 1 mM MgCl₂, 0.1% (w/v) bacitracin, 0.003% (w/v) TWEEN®-20, and Roche Complete™ Protease Inhibitors without EDTA.
as §1

Question: How did the Ki turn out when B1 was run?
Answer: 4.12 nM

Question: Which Ki does the source give for B2 here?
Answer: 2.63 nM

Question: With B3 as the binder, how does the Ki read?
Answer: 3.03 nM

Question: Which Ki does the source give for B4 here?
Answer: 13.3 nM

Question: How did the Ki turn out when B5 was run?
Answer: 3.16 nM

Question: For B6, which Ki is on record?
Answer: 2.59 nM

Question: How did the Ki turn out when B7 was run?
Answer: 3.98 nM

Question: How did the Ki turn out when B8 was run?
Answer: 3.23 nM

Question: B9 was tested. Which Ki did it give?
Answer: 17.2 nM

Question: How did the Ki turn out when B10 was run?
Answer: 6.95 nM

Question: B11 was tested. Which Ki did it give?
Answer: 11.4 nM
